Test [1] deals with T1, recombinant human Tie2-Fc chimeric protein (R&D, 313-TI-100) (human, UniProt Q02763 23-745).
T1 construct: Bought reagent; Fc part of the bought chimera not given
As to the kind of experiment: ELISA, Tie2-Fc coated, HRP/TMB absorbance at 450 nm. (In general: ELISA stands for enzyme-linked immunosorbent assay.)

The target in test [2] is T2, recombinant monkey Tie2-Fc chimeric protein (Sino Biological Inc., 90292-C02H) (monkey).
T2 construct: Bought reagent
The description is as above.

The target of test [3] is T3, human Tie2 (on human Tie2-expressing cells) (human, UniProt Q02763 23-1124). As to the kind of experiment: cell-based or functional assay.
Test [4] addresses T3, human Tie2 (on human Tie2-expressing …). As to the kind of experiment: cell-based or functional assay. The source holds these as a separate data set.
The target is the same in test [5]. Briefly: cell-based or functional assay. The source holds these as a separate data set.
For test [6] the target is unchanged. As to the kind of experiment: cell-based or functional assay. This is another data set of the same source.

By EC50 is commonly meant the concentration at which the effect is half-maximal.

Read-outs that look alike come from different tables or passages of the source.

T3 sequence (Q02763 23-1124): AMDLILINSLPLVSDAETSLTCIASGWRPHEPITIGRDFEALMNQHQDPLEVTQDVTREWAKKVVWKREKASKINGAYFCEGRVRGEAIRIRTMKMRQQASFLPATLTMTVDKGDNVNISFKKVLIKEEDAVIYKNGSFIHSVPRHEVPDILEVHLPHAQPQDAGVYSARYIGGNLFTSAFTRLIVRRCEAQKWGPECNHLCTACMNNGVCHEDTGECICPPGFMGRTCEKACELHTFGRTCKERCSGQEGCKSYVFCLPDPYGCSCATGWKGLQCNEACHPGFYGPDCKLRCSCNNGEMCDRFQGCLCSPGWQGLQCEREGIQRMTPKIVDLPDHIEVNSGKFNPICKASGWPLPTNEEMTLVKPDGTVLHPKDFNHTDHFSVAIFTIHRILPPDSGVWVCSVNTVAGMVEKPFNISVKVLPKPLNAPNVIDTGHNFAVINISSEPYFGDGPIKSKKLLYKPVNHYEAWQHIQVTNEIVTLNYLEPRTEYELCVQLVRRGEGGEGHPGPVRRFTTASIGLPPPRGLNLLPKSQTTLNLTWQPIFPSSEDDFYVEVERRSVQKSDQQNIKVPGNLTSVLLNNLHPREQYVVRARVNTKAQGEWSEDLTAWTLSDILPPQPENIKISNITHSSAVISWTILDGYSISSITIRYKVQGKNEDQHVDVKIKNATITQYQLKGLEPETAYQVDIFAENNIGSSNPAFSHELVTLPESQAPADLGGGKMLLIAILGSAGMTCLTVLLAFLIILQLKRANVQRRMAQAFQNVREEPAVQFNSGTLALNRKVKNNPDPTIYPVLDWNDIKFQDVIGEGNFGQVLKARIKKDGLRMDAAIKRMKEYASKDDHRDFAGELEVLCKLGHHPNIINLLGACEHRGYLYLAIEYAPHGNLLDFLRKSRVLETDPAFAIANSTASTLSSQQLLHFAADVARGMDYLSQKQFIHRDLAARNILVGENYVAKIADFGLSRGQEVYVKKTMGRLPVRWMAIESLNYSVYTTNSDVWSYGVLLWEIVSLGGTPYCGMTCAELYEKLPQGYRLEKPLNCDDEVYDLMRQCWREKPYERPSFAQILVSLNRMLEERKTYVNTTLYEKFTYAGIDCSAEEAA
T1 sequence (Q02763 23-745, change not shown): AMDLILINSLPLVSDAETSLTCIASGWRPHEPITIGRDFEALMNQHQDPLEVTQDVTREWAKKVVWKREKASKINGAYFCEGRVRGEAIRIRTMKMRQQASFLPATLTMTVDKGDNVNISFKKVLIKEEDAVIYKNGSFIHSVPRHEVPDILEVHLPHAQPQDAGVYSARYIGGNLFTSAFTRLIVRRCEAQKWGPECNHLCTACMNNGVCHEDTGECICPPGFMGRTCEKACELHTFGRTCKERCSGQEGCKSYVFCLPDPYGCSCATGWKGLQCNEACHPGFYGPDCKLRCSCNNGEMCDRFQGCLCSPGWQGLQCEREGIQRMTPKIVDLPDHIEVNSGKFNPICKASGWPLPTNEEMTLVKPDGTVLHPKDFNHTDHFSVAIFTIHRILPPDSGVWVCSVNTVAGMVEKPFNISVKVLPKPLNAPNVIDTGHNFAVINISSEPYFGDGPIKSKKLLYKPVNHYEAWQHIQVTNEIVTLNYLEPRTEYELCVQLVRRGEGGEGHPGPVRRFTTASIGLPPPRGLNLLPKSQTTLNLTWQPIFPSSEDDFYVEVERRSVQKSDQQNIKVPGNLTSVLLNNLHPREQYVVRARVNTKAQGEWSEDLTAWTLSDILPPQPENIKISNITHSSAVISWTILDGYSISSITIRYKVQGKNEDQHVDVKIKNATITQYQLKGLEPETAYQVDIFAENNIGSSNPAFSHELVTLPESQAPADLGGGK

B1: murine monoclonal antibody 15B8 (antibody, V domains shown)
VH: QVQLQQPGVVLVMPGASVKLSCKASGYTFASYWMHWVKQRPGQGLEWIGEIDPSDSYRNYNQKFKGKATLTVDKSSSTVNMQLSSLTSEDSAVYYCAKTSGIGRAMDYWGQGTSVTVSS
VL: DIQMIQSPASLSASVGETVTITCRASENIYSFVTWYQQKQGKSPQLLVFNAKNLVEGVPSSFSGSGSGTQFSLKIDSLQPEDFGTYYCQHHYSIPYTFGGGTKLEMR
Regarding B1, the EC50 came out at 0.219 µg/mL in test [1] and 0.224 µg/mL in test [2]. Further, the “EC50 value of anti-apoptotic activity, human Tie2-expressing BaF3 cell” value (“EC50 value of anti-apoptotic activity” for short) in test [3] stood at 0.0266 µg/mL. The “anti-apoptotic activity, human Tie2-expressing BaF3 cell (maximum, relative to Ang-1)” value in test [4] is approximately 60%.

B2: fully human 2-16A2 (antibody, human IgG1, kappa, V domains shown)
VH: EVQLVESGGGLVQPGGSLRLSCAASGFTFDDYAMHWVRQAPGKGLEWVAGISWNSGSIVYADSVKGRFTISRDNSKNTLYLQMNSLRAEDTAVYYCAKDIREQLVEDAFDIWGQGTLVTVSS
VL: DIQMTQSPSSLSASVGDRVTITCRSSQSLLHSHRYNYLDWYQQKPGKAPKLLIYLGSNRASGVPSRFSGSGSGTDFTLTISSVQPEDFATYYCMQTLQTPLTFGQGTKVEIKR
As for B2, the “EC50 value of anti-apoptotic activity” value in test [5] was found to be 0.0376 µg/mL.

B3: TIE-1-Igγ1-WT (antibody, human IgG1, kappa)
heavy: not shown
light: DIQMTQSPSSLSASVGDRVTITCRSSQSLLHSHRYNYLDWYQQKPGKAPKLLIYLGSNRASGVPSRFSGSGSGTDFTLTISSVQPEDFATYYCMQTLQTPLTFGQGTKVEIKRTVAAPSVFIFPPSDEQLKSGTASVVCLLNNFYPREAKVQWKVDNALQSGNSQESVTEQDSKDSTYSLSSTLTLSKADYEKHKVYACEVTHQGLSSPVTKSFNRGEC
With B3, in test [5], the “EC50 value of anti-apoptotic activity” value was 0.0071 µg/mL.

B4: TIE-1-Igγ1-I253A (antibody, human IgG1, kappa, L234A L235A)
heavy: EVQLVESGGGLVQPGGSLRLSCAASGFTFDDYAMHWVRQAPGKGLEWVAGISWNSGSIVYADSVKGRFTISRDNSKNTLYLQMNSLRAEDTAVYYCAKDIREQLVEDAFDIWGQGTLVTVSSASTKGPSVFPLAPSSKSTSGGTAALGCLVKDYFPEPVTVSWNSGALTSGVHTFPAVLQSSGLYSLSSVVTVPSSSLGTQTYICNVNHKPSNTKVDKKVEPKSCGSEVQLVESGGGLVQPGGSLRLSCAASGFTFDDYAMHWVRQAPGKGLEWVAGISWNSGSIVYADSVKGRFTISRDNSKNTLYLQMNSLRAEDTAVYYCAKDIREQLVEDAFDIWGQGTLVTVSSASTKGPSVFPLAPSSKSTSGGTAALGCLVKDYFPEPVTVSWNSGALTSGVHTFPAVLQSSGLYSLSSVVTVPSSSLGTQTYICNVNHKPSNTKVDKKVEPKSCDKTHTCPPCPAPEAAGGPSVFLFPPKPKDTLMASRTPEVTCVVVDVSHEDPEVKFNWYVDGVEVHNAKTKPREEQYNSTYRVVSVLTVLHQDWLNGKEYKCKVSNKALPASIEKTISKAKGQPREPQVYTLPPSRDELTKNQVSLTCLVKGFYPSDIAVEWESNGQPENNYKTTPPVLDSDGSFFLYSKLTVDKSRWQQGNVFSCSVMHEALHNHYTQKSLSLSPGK
light: B3 light
In the case of B4, the “EC50 value of anti-apoptotic activity” value in test [6] is 0.00506 µg/mL.

The record behind these values is US20160222130A1 (Astellas, published 2016).
